# Substitutions are numbered along the chain they refer to. Ends that are not written are not given here. FAM = 5,6-carboxyfluorescein
# T1: Nrd1 CID M126A (S. cerevisiae, UniProt P53617 1-153, M126A)
# T1 construct: source: recombinant, produced and purified as described previously (Kubicek et al, 2012)
# T1 sequence (looked up): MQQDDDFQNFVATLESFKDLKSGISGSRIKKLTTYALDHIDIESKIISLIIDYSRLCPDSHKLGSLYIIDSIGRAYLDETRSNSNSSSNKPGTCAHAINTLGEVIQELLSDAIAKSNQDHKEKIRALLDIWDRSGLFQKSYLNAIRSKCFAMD
# T2: Nrd1 CID R133G (S. cerevisiae, UniProt P53617 1-153, R133G)
# T2 construct: the construct for anisotropy is made as described previously (Kubicek et al, 2012); also called CID(R133G)-His6; source: recombinant, produced and purified as described previously (Kubicek et al, 2012); plasmid made with QuikChange, T7 promoter
# T2 sequence (looked up): T1 sequence (looked up) with A126M, R133G
# T3: Nrd1 CID I130A (S. cerevisiae, UniProt P53617 1-153, I130A)
# T3 construct: the construct for anisotropy is made as described previously (Kubicek et al, 2012); also called CID(I130A)-His6; source: recombinant, produced and purified as described previously (Kubicek et al, 2012); plasmid with T7 promoter
# T3 sequence (looked up): T1 sequence (looked up) with A126M, I130A
# B1: Sen1 NIM peptide (Sen1 aa 2,052-2,063) (peptide, UniProt Q00416 2052-2063, looked up)
# peptide: {FAM}-DDDEDDYTPSIS
# notes: Sen1, S. cerevisiae, fragment harbouring aa 2,052-2,063; source: synthetic peptide
# Tests used:
# Test in all cases: fluorescence polarisation; fluorescence anisotropy, equilibrium binding of Nrd1 CID variants to FAM-labelled NIM peptides; 10°C, 50 mM Na2HPO4, 100 mM NaCl, pH 8; 1:1 model with non-specific binding (DynaFit)
# Details in all cases: both partners purified
# Nrd1 CID M126A = target: T1, Nrd1 CID M126A
# Nrd1 CID R133G = target: T2, Nrd1 CID R133G
# Nrd1 CID I130A = target: T3, Nrd1 CID I130A
binder,measurement,setting,value
B1,Kd,Nrd1 CID M126A,1.4 ± 0.07 µM
same,Kd,Nrd1 CID R133G,1.6 ± 0.04 µM
same,Kd,Nrd1 CID I130A,7.6 ± 0.3 µM

# — paper PMC7110113, “Termination of non‐coding transcription in yeast relies on both an RNA Pol II CTD interaction domain and a CTD‐mimicking region in Sen1” (The EMBO Journal, 2020)
